Like-named read-outs stand apart in the source and are kept apart here.
Assays:
LIN28A [1] = molecular target: T1, LIN28A (UniProt Q9H9Z2 1-209); assay: EMSA
T1 sequence: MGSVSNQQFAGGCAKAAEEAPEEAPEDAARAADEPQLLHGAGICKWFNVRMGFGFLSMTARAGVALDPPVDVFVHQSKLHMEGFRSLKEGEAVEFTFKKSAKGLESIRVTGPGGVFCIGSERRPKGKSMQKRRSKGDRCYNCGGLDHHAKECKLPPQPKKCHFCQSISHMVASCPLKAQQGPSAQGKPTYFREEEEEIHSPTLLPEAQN

LIN28A [2] = molecular target: T1, LIN28A; assay: EMSA; remark: listed apart in the source

B1: HOXB9 original (structured_RNA)
RNA: GGGACAAGUGGUCUGGGACAGGGAGGAGCAAC
B1: binds (LIN28A [1]).

B2: HOXB9 m6A (structured_RNA)
RNA: B1 RNA
modifications: one m6A; position marked only by red colour (not recoverable from text)
B2: binds (LIN28A [2]).

Source: paper doi:10.1101/2025.09.11.675469
